Measurements reported in patent US20070184493.

Tests used:
[1] = test system: substrate designed for detection of Caspase 3 (-DEVD′GIN- cleavage)
[2] = test system: substrate designed for detection of Granzyme B (-VGPD′FGR- cleavage)

Substance | Fluorogenic activity of indicated substrates measured in solution after addition of recombinant enzyme [1] | Fluorogenic activity of indicated substrates measured in solution after addition of recombinant enzyme [2]
recombinant Caspase 3 | selective cleavage of substrates designed for detection of ... Caspase 3 (-DEVD′GIN- cleavage) protease activities | 
recombinant Granzyme B |  | selective cleavage of substrates designed for detection of Granzyme B (-VGPD′FGR- cleavage)
